This is an account of results in patent US20040096912A1.

For the assay, the target named is µ opioid receptors in brain membranes of heterozygous Cre/S196A mice. The assay can be described thus: [^3H]DAMGO saturation binding, Scatchard analysis, brain membranes of heterozygous Cre/S196A mice.

The term Kd denotes the concentration at which binding is half-saturated. A lower Kd goes with tighter binding. “[^3H]DAMGO ([D-Ala^1.N-McPhe^4.Gly^5-ol]enkephalin) (peptide)”: the Kd came to 2.45 nM.
